# Data reported in PMC4645341 (Journal of Virology, 2015).
# Where no end group is shown, it is not given here.
# B1: 4E10 WDWD Fab (Fab, V domains shown)
# VH: VQLVQSGAEVKRPGSSVTVSCKASGGSFSTYALSWVRQAPGRGLEWMGGVIPLLTITNYAPRFQGRITITADRSTSTAYLELNSLRPEDTAVYYCAREGTTGDGDLGKPIGAFAHWGQGTLVTVSS
# VL: EIVLTQSPGTQSLSPGERATLSCRASQSVGNNKLAWYQQRPGQAPRLLIYGASSRPSGVADRFSGSGSGTDFTLTISRLEPEDFAVYYCQQYGQSLSTFGQGTKVEVK
# Experiments:
# [1] = target: MPER-TM1 (HIV-1 (strain not stated)); assay: ELISA
# 4E10 WT Fab = assay: SPR
# [2] = target: Recombinant gp41 (r-gp41; HIV-1MN isolate) (HIV-1 isolate MN, UniProt P05877); assay: ELISA
# Sequence of Recombinant gp41 (r-gp41; HIV-1MN isolate) (P05877 whole entry, looked up): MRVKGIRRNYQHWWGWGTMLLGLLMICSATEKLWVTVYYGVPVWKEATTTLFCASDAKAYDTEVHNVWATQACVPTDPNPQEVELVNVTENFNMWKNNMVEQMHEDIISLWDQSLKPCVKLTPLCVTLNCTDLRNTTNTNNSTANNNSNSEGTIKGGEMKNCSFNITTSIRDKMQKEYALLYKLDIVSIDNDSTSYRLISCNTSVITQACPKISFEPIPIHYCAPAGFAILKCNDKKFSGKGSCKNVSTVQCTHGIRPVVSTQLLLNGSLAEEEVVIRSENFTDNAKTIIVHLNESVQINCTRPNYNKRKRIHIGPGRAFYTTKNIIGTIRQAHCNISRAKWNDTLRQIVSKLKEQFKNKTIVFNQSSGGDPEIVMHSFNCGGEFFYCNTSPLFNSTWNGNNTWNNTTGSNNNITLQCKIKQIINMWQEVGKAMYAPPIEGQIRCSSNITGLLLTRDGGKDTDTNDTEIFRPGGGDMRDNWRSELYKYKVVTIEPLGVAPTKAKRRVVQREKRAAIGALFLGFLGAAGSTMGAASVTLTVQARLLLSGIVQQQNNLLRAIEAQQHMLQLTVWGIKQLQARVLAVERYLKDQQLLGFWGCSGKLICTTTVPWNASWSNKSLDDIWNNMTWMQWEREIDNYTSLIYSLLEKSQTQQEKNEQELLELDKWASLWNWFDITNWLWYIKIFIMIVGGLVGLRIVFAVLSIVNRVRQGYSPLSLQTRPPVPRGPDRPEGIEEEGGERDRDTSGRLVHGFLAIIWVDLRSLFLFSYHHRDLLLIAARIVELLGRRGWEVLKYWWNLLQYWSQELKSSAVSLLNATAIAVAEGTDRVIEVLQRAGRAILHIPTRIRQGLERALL
molecule,measurement,setting,value
4E10 IgG1 MAb (antibody),EC50,[1],0.1 nM
4E10 WT Fab,EC50,[1],1 nM
NWFDITNWLWYIRRRR-NH2 [4E10ep variant (…-RRR)],Kd,4E10 WT Fab,21 nM
same,dH (van't Hoff),4E10 WT Fab,-11.5 kcal/mol
same,koff,4E10 WT Fab,0.0011 s⁻¹
B1,binding result,[2],binds
